Patent US8987433B2, “Variant isoprenoid producing enzymes and uses thereof” (Sapphire Energy, Inc., priority 2009, dated 2015)
Substitutions are numbered along the chain they refer to. Entries after “also recorded” stand apart in the source; their conditions may differ. Read-outs that look alike come from different tables or passages of the source.

How the values were obtained:
E. coli XL1-blue cells = assay: Minimum inhibitory concentration (MIC) of cefotaxime on plated bacterial cells; type: cell-based; conditions: for MIC: Escherichia coli, XL1BLUECELLS, 24 h, about 1,000 cells per plate, 24 hours at 37° C.
Method: The minimum inhibitory concentration (MIC) of cefotaxime on bacterial cells lacking a plasmid is determined by plating 10 μl of a 10^−2 dilution of an overnight bacterial culture (about 1000 cfu) of E. coli XL1-blue cells (Stratagene, San Diego Calif.) on plates with varying levels of cefotaxime (Sigma, St. Louis Mo.), followed by incubation for 24 hours at 37° C.
Growth on cefotaxime is sensitive to the density of cells, and therefore similar numbers of cells needed to be plated on each plate (obtained by plating on plain LB plates). Platings of 1000 cells are consistently performed.
After digestion of the 900 bp product with the terminal restriction enzyme SfiI and agarose gel purification, the 900 bp product is ligated into the vector pUC182Sfi at the unique SfiI site with T4 DNA ligase (BRL, Gaithersburg Md.). The mixture is electroporated into E. coli XL1-blue cells and plated on LB plates with 0.32-0.64 μg/ml of cefotaxime (Sigma, St. Louis Mo.). The cells were grown for up to 24 hours at 37° C. and the resulting colonies are scraped off the plate as a pool and used as the PCR template for the next round of shuffling.
The transformants obtained after each of three rounds of shuffling are plated on increasing levels of cefotaxime. The colonies (>100, to maintain diversity) from the plate with the highest level of cefotaxime are pooled and used as the template for the PCR reaction for the next round.
Colonies obtained at 5-10 μg/ml are used for a third round similar to the first and second rounds except the cells are plated on LB plates having 80-160 μg/ml of cefotaxime. After the third round, colonies are obtained at 80-160 μg/ml, and after replating on increasing concentrations of cefotaxime, colonies could be obtained at up to 320 μg/ml after 24 hours at 37° C.
Growth on cefotaxime is dependent on the cell density, requiring that all the MICs be standardized (in our case to about 1,000 cells per plate). […] The 5 largest colonies grown at 1,280 μg/ml are plated for single colonies twice, and the SfiI inserts are analyzed by restriction mapping of the colony PCR products.

[1] = system: Gallus gallus FPP synthase (prenyl transferase activity); assay: Detection of prenyl transferase activity by luminescence measurement (PPi light assay); type: biochemical; conditions: DMAPP and IPP substrates, two hours at room temperature, in vitro synthesized Strep-Tag protein, versus wild type control
Method: After gene assembly was completed, the NEB PURExpress in vitro protein synthesis kit was used according to the manufacturer's instructions to produce the variant FPP synthase proteins. After protein synthesis, Strep-Tag magnetic beads (IBA GmbH) were used to isolate the synthesized proteins, after washing the beads with assay buffer (25 mm HEPES pH 7.4, 10 mM MgCl2).
After synthesis, the activity level of the synthesized protein was measured as described in Example 5 by luminescence. Because most mutations are anticipated to be detrimental, it is unlikely for any pool of mutants to have a higher activity than the wild-type protein; pools with higher activity than […] must be deconvoluted to identify individual beneficial mutants.
The residue numbers are reported using the wild-type sequence numbering (SEQ ID NO: 1). The winning pools of nine variants are again resynthesized as discrete mutants and activity measurements are repeated.
This example describes the detection of prenyl transferase activity by luminescence measurement. In this example, an avian FPP synthase (Genbank Accession No. P08836) (SEQ ID NO: 1) was used as the parent prenyl transferase. The parent prenyl transferase was codon-optimized (SEQ ID NO: 21) and inserted into a vector. The nucleic acid sequence of SEQ ID NO: 22 was cloned into the bacterial expression vector pET-21a(+) (FIG. 10) under the control of a T7 promoter. A reaction buffer was produced by mixing 4 μl of 10× reaction buffer (250 mM HEPES pH 7.4, 100 mM MgCl2), 0.2 μl of 1M dithiothreitol, 1 μl of 10 mM DMAPP, 2 μl of 10 mM IPP, and 31.8 μl of water. 1 ng of the Avian FPP synthase (SEQ ID NO: 22) was added to the 39 μl of reaction buffer in a white 96 well microplate. The reaction was sealed with an adhesive plastic cover and allowed to progress for two hours at room temperature.
The PPi light detection and conversion reagents were prepared as instructed by the manufacturer (Lonza Group Ltd., Basel, Switzerland). After the two hour incubation, 40 μl of the conversion reagent, and 40 μl of the detection reagent were added to the wells of the microplate, and the microplate was sealed with an aluminum foil cover. After sixty minutes, the aluminum cover was removed, and the luminescence emitted from each well was measured with a 96 well plate reader in glow luminescence mode. The total luminescence is reported as Relative Luminescence Units (RLU). […] For this study, each pool is a mixture of variants at a single amino acid position.

With `CO/N=C(\C(=O)N[C@@H]1C(=O)N2C(C(=O)O)=C(COC(C)=O)CS[C@H]12)c1csc(N)n1` [cefotaxime] the MIC (E. coli XL1-blue cells; read-out: MIC of cefotaxime, cells carrying the starting (unshuffled) gene on pUC18 derivative) was about 0.02 µg/mL, the MIC (E. coli XL1-blue cells; read-out: MIC of cefotaxime, mutant after the third round of shuffling and replating) was 320 µg/mL and the “cefotaxime level at which growth is obtained” value (E. coli XL1-blue cells; at higher cell densities, after third round of shuffling) was “up to 1280 μg/ml”. For the same molecule, the “fold increased resistance to cefotaxime” value (E. coli XL1-blue cells; selected mutant versus starting gene) was 16,000 fold.

B1: Thr269Tyr: Gallus gallus FPP synthase (SEQ ID NO: 1) point mutation Thr269Tyr (protein, listed as Gallus gallus)
chain: MHKFTGVNAKFQQPALRNLSPVVVEREREEFVGFFPQIVRDLTEDGIGHPEVGDAVARLKEVLQYNAPGGKCNRGLTVVAAYRELSGPGQKDAESLRCALAVGWCIELFQAFFLVADDIMDQSLTRRGQLCWYKKEGVGLDAINDSFLLESSVYRVLKKYCRQRPYYVHLLELFLQTAYQTELGQMLDLITAPVSKVDLSHFSEERYKAIVKYKTAFYSFYLPVAAAMYMVGIDSKEEHENAKAILLEMGEYFQIQDDYLDCFGDPALYGKVGTDIQDNKCSWLVVQCLQRVTPEQRQLLEDNYGRKEPEKVAKVKELYEAVGMRAAFQQYEESSYRRLQELIEKHSNRLPKEIFLGLAQKIYKRQK
B1 was tested, and the “prenyl transferase activity measured by luminescence, compared with wild type” value [1] was “increased prenyl transferase activity as compared to the wild type protein; also recorded: activity greater than wild-type” and the “prenyl transferase activity measured by luminescence, compared with wild type” value ([1]; listed as Thr—269_Tyr) was “more activity than the wild type protein sequence”.

B2: Thr269Asp: Gallus gallus FPP synthase (SEQ ID NO: 1) point mutation Thr269Asp (protein, listed as Gallus gallus)
chain: B1 chain with Y269D
In the case of B2, the “prenyl transferase activity measured by luminescence, compared with wild type” value [1] is reported as “increased prenyl transferase activity as compared to the wild type protein; also recorded: activity greater than wild-type” and the “prenyl transferase activity measured by luminescence, compared with wild type” value ([1]; listed as Thr—269_Asp) is reported as “more activity than the wild type protein sequence”.

B3: Thr269Gln: Gallus gallus FPP synthase (SEQ ID NO: 1) point mutation Thr269Gln (protein, listed as Gallus gallus)
chain: B1 chain with Y269Q
With B3 the “prenyl transferase activity measured by luminescence, compared with wild type” value [1] was “increased prenyl transferase activity as compared to the wild type protein; also recorded: activity greater than wild-type” and the “prenyl transferase activity measured by luminescence, compared with wild type” value ([1]; listed as Thr—269_Gln) was “more activity than the wild type protein sequence”.
